assay: yeast display, Sf9 membrane polyspecificity reagent, FACS + sequencing; frameworks hold sequencing errors
In short: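 In a synthetic yeast display library (Saccharomyces cerevisiae BJ5465), nanobody expression was induced with galactose for 36–48 hours. FACS gates were set low and high (top ~1%) using anti-HA fluorescence for expression and streptavidin fluorescence for binding of the Sf9 membrane reagent. Each polyreactivity label is drawn from the gate of origin.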

Sequence	polyreactivity (PSR sort gate)
QVQLVESGGGLVQAGGSLRLSCAASGSTFGPNAMGWYRQAPGKERELVAAIRSNGGRTYYADSVKGRFTISRDNAKNSVYLQMNSLKPEDTAVYYCAAPHYPYDTPYGYWGQGTQVTVSS	low polyreactivity
QVQLVESGGGLVQAGGSLRLSCAASGSTFGPYAMGWYRQAPGKERELVAAIRSDGGTYYADSVKGRFTISRDNAKNTVYLQMNSLKPEDTAVYYCNAVRGAAWRCYNSWQTYPRDYWGQGTQVTVSS	high polyreactivity
QVQLVESGGGLVQAGGSLRLSCAASGSTFGPYAMGWYRQAPGKERELVAAISRGGSTYYADSVKGRFTISRDNAKNTVYLQMNSLKPEDTAVYYCAARYVRVGYDYWGQGTQVTVSS	high polyreactivity
QVQLVESGGGLVQAGGSLRLSCAASGSTFGPYAMGWYRQAPGKERELVATITRNGGSTYYADSVKGRFTISRDNAKNTVYLQMNSLKPEDTAVYYCNAEGRWSSFTQRMDYWGQGTQVTVSW	low polyreactivity
QVQLVESGGGLVQAGGSLRLSCAASGSTFGPYDMGWYRQAPGQERDLVAAITRSGGRTYYADSVKGRFTFSRDNAKNTVYLQKNSLKPEDTAVYYCAAPPSEATSQRYKYNYWGQGTQVTVSS	high polyreactivity
QVQLVESGGGLVQAGGSLRLSCAASGSTFGPYVMGWYRQAPGKERELVAAISRIGGRTYYADSVKGRFTISRDNAKNTVYLQMNSLKPEDTAVYYCAAKVGLYGDDYWGQGTQVTVSS	high polyreactivity
QVQLVESGGGLVQAGGSLRLSCAASGSTFGRNALGWYRQAPGKERELVASISWGGGSTYYADSVKGRFTISRDNAKNTVYLQMNSLKPEDTAVYYSNARRFLWSQLSGSFSYDYWGQGTQVTVSS	high polyreactivity
QVQLVESGGGLVQAGGSLRLSCAASGSTFGRNAMGWYRQAPGKERELVAAITASGGTTYYADSVKGRFTISRDNAMNTVYLQMNSLKPEDTAVYYCARAGHFSFKYDYWGQGTQVTVSS	low polyreactivity
QVQLVESGGGLVQAGGSLRLSCAASGSTFGRNAMGWYRQAPGNERELVAAISKRGGSTYYADSVKGRFTISRDNAKNTVYLQMNSLKPEDTAVYYCAKDVEGLGRRYRWYNYWGQGTQVTVSS	high polyreactivity
QVQLVESGGGLVQAGGSLRLSCAASGSTFGRYAKGWYRQAPGKERQLVAAISSSGVTTYYADSVKGRFTISRDNAKNSVYLQINSLKPEDTAVYYCSQTYKYHRWITKYGYWGQGTQVTVSS	high polyreactivity
QVQLVESGGGLVQAGGSLRLSCAASGSTFGRYAMGWYRQAPGKERELVAAISRGTTTNYADSVKGRFTIARDNAKNTVYLQMNSLKPEDTAVYYCAADQPSKRYYSWGQGTQVTVSS	low polyreactivity
QVQLVESGGGLVQAGGSLRLSCAASGSTFGRYAMGWYRQAPGKERELVAAISRGTTTNYADSVKGRFTISRDNAKNTVYLQMNILKPEDTAVYYCAAQTDSVESDYWGQGTQVTVSS	low polyreactivity
QVQLVESGGGLVQAGGSLRLSCAASGSTFGRYAMGWYRQAPGKERELVAAISRRGASTYYADSVKGRFTISRDNAKNTVYLQMNSLKPEDTAVYYCATGYPIDLGREFDYWGQGIQVTVSS	high polyreactivity
QVQLVESGGGLVQAGGSLRLSCAASGSTFGRYVMGRYRPAPGKERELVAAISGSGGSTYYADSVKGRFTISRDNAKNTVYLQMNSLKPEDTAVYYCAARVAHYEYYWGQGTQVTVSS	high polyreactivity
QVQLVESGGGLVQAGGSLRLSCAASGSTFGSNAMGWYREAPGKERELVAAIDANGGSTYYADSVKGRFTISRDNAKNTVYLQMNSLKPEDTAVYYCAAAGYWYYYVPNDYWGQGTQVTVSS	low polyreactivity
QVQLVESGGGLVQAGGSLRLSCAASGSTFGSNAMGWYRQAPGKEREFVAAISRRGGSTYYADSVKGRFTISRDNAKNTVYLQMNSLKPEDTAVYYCAADYISLREEDYWGQGTQVTVSS	high polyreactivity

Sequence	polyreactivity (PSR sort gate)
QVQLVESGGGLVQAGGSLRLSCAASGSTFGSNAMGWYRQAPGKERELVAAIRGIVGSTYYADSVKGRFTISRDNAKNTVYLQMNSLKPEDTAVYYCNKAEVSTYYQTRSTYGGYDYWGQGTQVTVSS	low polyreactivity
QVQLVESGGGLVQAGGSLRLSCAASGSTFGSNAMGWYRQAPGKERELVAAISWTGGSTYYADSVKGRFTISRDNAKYTVYLQMKSLKPEDTAVYYCNAYGYGYPLYRYDYWGQGTQVTVSS	low polyreactivity
QVQLVESGGGLVQAGGSLRLSCAASGSTFGSNAMGWYRQEPGKERELVAAITGGGTTSYADSVKGRFTISRDNAKNTVYLQMNSLKPEDTAVYYCNVLFADKSDYWGQGTQVTVSS	low polyreactivity
QVQLVESGGGLVQAGGSLRLSCAASGSTFGSYAMGWYRQAPGKERELVAAISGGGSTYYADSVKGRFTISRDNAKNTVYLQMNSLKPEDTAVYYCNAYWKYWRTNGPGTKYNYWGQGTQVTVSS	high polyreactivity
QVQLVESGGGLVQAGGSLRLSCAASGSTFGSYAMGWYRQAPGKERELVAAISTRGGRTRYADSVKVRFTISRDNAKNTVYLQMNSLKPQDTAVDYCATRIGSRVYNVSGYYRKDDYWGQGTQVTVSS	high polyreactivity
QVQLVESGGGLVQAGGSLRLSCAASGSTFGSYAMRWYRQAPGKERELVAAITASGGSTYYADSVKGRFTISRDNAKNTVYLQMNSLKPEDTAVYYCAADTTYIPLSIEYDYWGQGTQVTVSS	low polyreactivity
QVQLVESGGGLVQAGGSLRLSCAASGSTFGSYAMVWYRQAPGKERELVADISSRGASTYYADSVKGRFTISRDNAKNTVYLQMNRLKPEDTAVYYCARDVYIWYGYGYFPEYEYWGQGTQVTVSS	low polyreactivity
QVQLVESGGGLVQAGGSLRLSCAASGSTFGSYGMGWYRQAPGKERELVAVITYSGDRTYYADSVKGRFTISRDNAKNTVYLQMNSLKPEDTAVYYCAADRSYRVSEYDYWGQGTQVTVSS	low polyreactivity
QVQLVESGGGLVQAGGSLRLSCAASGSTFGSYTKGWSRPAPGQERELVAAINWSGGNTYYADSVKGRFTISRDNAKNTVYLQMTSLKREDTAVYYCAAAFYIYGVEGDYWGQGTQVTVSS	low polyreactivity
QVQLVESGGGLVQAGGSLRLSCAASGSTFGSYTMGWYRQAPGKEREFVAAIRWIGGSTYYADSVKGRFTISRDNAKNTVYLQMNSLKPEDTAVYYCNAKRRKHGYYYWGQGTQVTVSS	high polyreactivity
QVQLVESGGGLVQAGGSLRLSCAASGSTFGTNAMGWYRQAPGKERELVAAITRGGNTYYADSVKGRFTISRDNAKNTVYLQMNSLKTEDTAVYYCNTYTRASRFDYWGQGTQVTVSS	high polyreactivity
QVQLVESGGGLVQAGGSLRLSCAASGSTFGTYAMGCYRQAPGKARELVAAISGRGTSTYYADSVKGRFTISRDNAKITVYLQMNSLKPEDTAVYYCNAVFWSRSSHFDYWGQGTQVTVSS	high polyreactivity
QVQLVESGGGLVQAGGSLRLSCAASGSTFGTYAMGWYRQAPGKERELVAAISSGDSTTYADSVKGRFTISRDNAKNTVYLQMNSLKPEDTAVYYCAARVPYKSDYWGQGTQVTVSS	low polyreactivity
QVQLVESGGGLVQAGGSLRLSCAASGSTFGTYAMGWYRQAPGKERELVAAISSGGSTYYADSVKGRFTISRDNAKNTVYLQMNSLKPEDTAVYYCAAGYYWYVWGFGYWGQGTQVSVSS	low polyreactivity
QVQLVESGGGLVQAGGSLRLSCAASGSTFGTYAMGWYRQAPGKERELVAAISYRGGSTYYADSVKGRFTISRDNAKNTVYLQMNSLKPEDTAVYYCATRKYAATGYDYWGQGTQVTVSS	high polyreactivity
QVQLVESGGGLVQAGGSLRLSCAASGSTFGTYAMGWYRQAPGKERELVAVISWSDGRTYYADSVKGRFTISRDNAKNTVYLQMISLKPEDTAVYYCNARLDTFVPRYGYWGQGTQVTVSS	high polyreactivity
